Our source for the EC50 and % inhibition in P3X63 cytotoxicity assay, extract 1/150 values is patent US20190055322A1.

Experiment [1] concerns the target different PcrV variants and reference strain PAO1 (23 PcrV sequence variants, GST-PcrV-His6).
For experiment [2], the target named is PcrV of P. aeruginosa strain PA103 (on TTSS-induced bacteria) (Pseudomonas aeruginosa strain PA103). Kind of experiment: cell-based or functional assay.

Values joined by “and” are separate entries in the source; they are usually repeats but may differ in a detail not shown here. Equal values may be shown once.

B1: Nanobody 285 (13F07-40GS-2B02) (VHH)
chain: EVQLVESGGGLVQAGGSLRLSCAASGNTFSTNPMYWYRQAEGKQRELVASISSRGITNYADSVRGRFSISRDNTKDTVYLQMNSLKPEDTAVYYCRLASLSSGTVYWGKGTLVTVSSGGGGSGGGGSGGGGSGGGGSGGGGSGGGGSGGGGSGGGGSEVQLVESGGGLVQPGDSLRLSCAASGRILSINNMVWYRQAPGKQRELVAHITSSGSTGYADSVKGRFTISRDNAKNTFYLQMTNLNPEDTAVYYCNCWVSSDSNAPLKNYWGQGTLVTVSS
For orientation: EC50 means the concentration at which the effect is half-maximal. Consider B1, for which the EC50 in experiment [1] was determined as 100 pM.

B2: Nanobody 115 (11B09-40GS-13F07) (VHH)
chain: EVQLVESGGGLVQAGGSLRLSCAASRLTFNHYNMGWFRQAPGKERERVAEVTWSGDKIYYVDSVKGRFTISRDNTPNPVYLYLQMNSLKPEDTAVYYCATAPRGLPYANGYWGQGTLVTVSSGGGGSGGGGSGGGGSGGGGSGGGGSGGGGSGGGGSGGGGSEVQLVESGGGLVQAGGSLRLSCAASGNTFSTNPMYWYRQAEGKQRELVASISSRGITNYADSVRGRFSISRDNTKDTVYLQMNSLKPEDTAVYYCRLASLSSGTVYWGKGTLVTVSS
Take B2: in experiment [2], the % inhibition in P3X63 cytotoxicity assay, extract 1/150 came out at 82%.

B3: Nanobody 335 (5H01-40GS-1E11) (VHH)
chain: EVQLVESGGGLVQPGGSLRLSCAASGSTLDYYAIGWFRQAPGKEREGVSCTSNSGSTYYGGSVKGRFTASRDNAKNTVYLQMNSLRPEDTAVYYCVATIGCATLGGTLDVQRYYYRGQGTLVTVSSGGGGSGGGGSGGGGSGGGGSGGGGSGGGGSGGGGSGGGGSEVQLVESGGGLVQPGGSLRLSCAASGSTRSVNPMAWFRQAPGRQREWVATISRSGYATYADSVKGRFTISGDNAKSSVYLQMNSLKPEDTAVYYCVTGTYWGQGTLVTVSS
Regarding B3, the EC50 in experiment [1] was 70 pM and 90 pM.

B4: 5E02-40GS-14E10 (VHH)
chain: EVQLVESGGGLVQPGGSLRLSCAASGITLDSIAICWFRQAPGKEREGVSCSRGSDGSTYYADSVKGRFTISRVNAKNTVYLQMNSLKPEDTAVYYCAAAPSIFYSGGYFPSGMDYWGKGTQVTVSSGGGGSGGGGSGGGGSGGGGSGGGGSGGGGSGGGGSGGGGSEVQLVESGGGLVQPGGSLRLSCAASGRIFSINTMGWYRQAPGKQRELVAGVTINAITNYADSVKGRFTISRDNAKNTVWLQMNSLKPEDTAVYYCHAWARSSGSAPYSQNWGQGTQVTVSS
In experiment [2], B4 displayed a % inhibition in P3X63 cytotoxicity assay, extract 1/150 of 48%.

B5: 1E11-40GS-14B10 (VHH)
chain: EVQLVESGGGLVQPGGSLRLSCAASGSTRSVNPMAWFRQAPGRQREWVATISRSGYATYADSVKGRFTISGDNAKSSVYLQMNSLKPEDTAVYYCVTGTYWGQGTLVTVSSGGGGSGGGGSGGGGSGGGGSGGGGSGGGGSGGGGSGGGGSEVQLVESGGGLVQPGGSLRLSCAASGRIFSINNMGWYHQAPGKQRELVATITMNGITTYADSVKGRFTISRDNAKNTVYLQMNSLKPEDTAVYYCSCWVRSSGGDPYRDYWGQGTQVTVSS
In experiment [2], B5 came in with a % inhibition in P3X63 cytotoxicity assay, extract 1/150 of 52%.

B6: Nanobody 277 (5H01-40GS-11B09) (VHH)
chain: EVQLVESGGGLVQPGGSLRLSCAASGSTLDYYAIGWFRQAPGKEREGVSCTSNSGSTYYGGSVKGRFTASRDNAKNTVYLQMNSLRPEDTAVYYCVATIGCATLGGTLDVQRYYYRGQGTLVTVSSGGGGSGGGGSGGGGSGGGGSGGGGSGGGGSGGGGSGGGGSEVQLVESGGGLVQAGGSLRLSCAASRLTFNHYNMGWFRQAPGKERERVAEVTWSGDKIYYVDSVKGRFTISRDNTPNPVYLYLQMNSLKPEDTAVYYCATAPRGLPYANGYWGQGTLVTVSS
For B6, in experiment [1], the EC50 is 70 pM and 100 pM.

B7: 1E11-40GS-5E02 (VHH)
chain: EVQLVESGGGLVQPGGSLRLSCAASGSTRSVNPMAWFRQAPGRQREWVATISRSGYATYADSVKGRFTISGDNAKSSVYLQMNSLKPEDTAVYYCVTGTYWGQGTLVTVSSGGGGSGGGGSGGGGSGGGGSGGGGSGGGGSGGGGSGGGGSEVQLVESGGGLVQPGGSLRLSCAASGITLDSIAICWFRQAPGKEREGVSCSRGSDGSTYYADSVKGRFTISRVNAKNTVYLQMNSLKPEDTAVYYCAAAPSIFYSGGYFPSGMDYWGKGTQVTVSS
In experiment [2], B7 had a % inhibition in P3X63 cytotoxicity assay, extract 1/150 of 44%.

B8: 1E11-40GS-4G10 (VHH)
chain: EVQLVESGGGLVQPGGSLRLSCAASGSTRSVNPMAWFRQAPGRQREWVATISRSGYATYADSVKGRFTISGDNAKSSVYLQMNSLKPEDTAVYYCVTGTYWGQGTLVTVSSGGGGSGGGGSGGGGSGGGGSGGGGSGGGGSGGGGSGGGGSEVQLVESGGGLVQAGGSLRLSCVISEDGVRNYDMGWFRQAPGKEREFVATINWSGGSTNYADSVKGRFTVSRDNAKNTMYLQMDSLKPEDTAVYYCVAAGFYNNYLRTAPNDWNDWGQGTQVTVSS
B8 displayed a % inhibition in P3X63 cytotoxicity assay, extract 1/150 in experiment [2] of 67%.

B9: Nanobody 275 (2G09-40GS-5H01) (VHH)
chain: EVQLVESGGGLVQPGGSLRLSCAASGSFGDNYELYAMTWFRQAPGERRDFVASVTGDGSTSYADSVKDRFTISRDNAKKLMYLQMNSLKPEDTAVYYCRLLNYWGQGTLVTVSSGGGGSGGGGSGGGGSGGGGSGGGGSGGGGSGGGGSGGGGSEVQLVESGGGLVQPGGSLRLSCAASGSTLDYYAIGWFRQAPGKEREGVSCTSNSGSTYYGGSVKGRFTASRDNAKNTVYLQMNSLRPEDTAVYYCVATIGCATLGGTLDVQRYYYRGQGTLVTVSS
Consider B9, for which, in experiment [1], the EC50 is 600 pM and 900 pM.

B10: Nanobody 256 (13F07-40GS-5H01) (VHH)
chain: EVQLVESGGGLVQAGGSLRLSCAASGNTFSTNPMYWYRQAEGKQRELVASISSRGITNYADSVRGRFSISRDNTKDTVYLQMNSLKPEDTAVYYCRLASLSSGTVYWGKGTLVTVSSGGGGSGGGGSGGGGSGGGGSGGGGSGGGGSGGGGSGGGGSEVQLVESGGGLVQPGGSLRLSCAASGSTLDYYAIGWFRQAPGKEREGVSCTSNSGSTYYGGSVKGRFTASRDNAKNTVYLQMNSLRPEDTAVYYCVATIGCATLGGTLDVQRYYYRGQGTLVTVSS
Take B10: in experiment [1], the EC50 is 70 pM and 100 pM.

B11: Nanobody 271 (7C10-40GS-14E10) (VHH)
chain: EVQLVESGGGLVQAGGSLRLSCTASGRTLSSYTMGWFRQAPGTEREFVAAMTRSGFNTYYADSVKGRFTISRDSTENTMALQMSSLKPEDTAVYYCTAGRGLTSYRADYWGQGTLVTVSSGGGGSGGGGSGGGGSGGGGSGGGGSGGGGSGGGGSGGGGSEVQLVESGGGLVQPGGSLRLSCAASGRIFSINTMGWYRQAPGKQRELVAGVTINAITNYADSVKGRFTISRDNAKNTVWLQMNSLKPEDTAVYYCHAWARSSGSAPYSQNWGQGTLVTVSS
As to B11, in experiment [1], the EC50 was 60 pM and 100 pM.

B12: Nanobody 319 (13F07-40GS-6B05) (VHH)
chain: EVQLVESGGGLVQAGGSLRLSCAASGNTFSTNPMYWYRQAEGKQRELVASISSRGITNYADSVRGRFSISRDNTKDTVYLQMNSLKPEDTAVYYCRLASLSSGTVYWGKGTLVTVSSGGGGSGGGGSGGGGSGGGGSGGGGSGGGGSGGGGSGGGGSEVQLVESGGGLVQPGGSLRLSCAASGSIFSINTMGWYRQAPGKQRELVSTITSNLVPHYADSVQGRFTISRDNARNTVYLQMNSLKPQDTAHYYCNAWARSSGATPYTNYWGQGTLVTVSS
On to B12, for which, in experiment [1], the EC50 was 80 pM and 100 pM.

B13: Nanobody 261 (5H01-40GS-2B10) (VHH)
chain: EVQLVESGGGLVQPGGSLRLSCAASGSTLDYYAIGWFRQAPGKEREGVSCTSNSGSTYYGGSVKGRFTASRDNAKNTVYLQMNSLRPEDTAVYYCVATIGCATLGGTLDVQRYYYRGQGTLVTVSSGGGGSGGGGSGGGGSGGGGSGGGGSGGGGSGGGGSGGGGSEVQLVESGGGLVQPGGSLRLSCAASGSIFSINNMGWYRQAPGKQRELVTVVTSNLITTYADSVKGRFTISRDNAKNTVYLQMNSLKPEDTAVYYCNAWARSVGSVPYSQFWGQGTLVTVSS
As for B13, the EC50 in experiment [1] was 60 pM and 70 pM.

B14: Nanobody 257 (13F07-40GS-2B10) (VHH)
chain: EVQLVESGGGLVQAGGSLRLSCAASGNTFSTNPMYWYRQAEGKQRELVASISSRGITNYADSVRGRFSISRDNTKDTVYLQMNSLKPEDTAVYYCRLASLSSGTVYWGKGTLVTVSSGGGGSGGGGSGGGGSGGGGSGGGGSGGGGSGGGGSGGGGSEVQLVESGGGLVQPGGSLRLSCAASGSIFSINNMGWYRQAPGKQRELVTVVTSNLITTYADSVKGRFTISRDNAKNTVYLQMNSLKPEDTAVYYCNAWARSVGSVPYSQFWGQGTLVTVSS
B14: the concentration for a half-maximal effect (EC50) in experiment [1] was 70 pM and 90 pM.

B15: Nanobody 259 (1E11-40GS-5H01) (VHH)
chain: EVQLVESGGGLVQPGGSLRLSCAASGSTRSVNPMAWFRQAPGRQREWVATISRSGYATYADSVKGRFTISGDNAKSSVYLQMNSLKPEDTAVYYCVTGTYWGQGTLVTVSSGGGGSGGGGSGGGGSGGGGSGGGGSGGGGSGGGGSGGGGSEVQLVESGGGLVQPGGSLRLSCAASGSTLDYYAIGWFRQAPGKEREGVSCTSNSGSTYYGGSVKGRFTASRDNAKNTVYLQMNSLRPEDTAVYYCVATIGCATLGGTLDVQRYYYRGQGTLVTVSS
As to B15, in experiment [1], the EC50 was 10 pM and 20 pM.
